Experimental findings from PMC8958347 are described below.

A word on the Kd: it is the concentration at which binding is half-saturated. A higher Kd goes with weaker binding.

In assay [1] the target is Dil labelled LDL (low-density lipoprotein). Kind of assay: MST; purified LDLR^Q722* or wild-type LDLR with Dil labelled LDL; Kd model; three replicates.
Assay [2] has the same target.
Assay [3] has the same target. Kind of assay: MST; sEV^Ad-LDLR-Q722* with Dil-LDL; Kd model; pH 5.5.
The target is the same in assay [4]. Kind of assay: MST; sEV^Ad-LDLR-Q722* with Dil-LDL; Kd model; pH 7.4.
The target is the same in assay [5]. Kind of assay: MST; sEV (isolated from supernatant of infected HepG2) with Dil-LDL; Kd model; pH not stated.

“LDLR^Q722* (truncated soluble LDLR, 1-722 amino acids), purified (from UniProt P01130 22-722) (domain or fragment)”: the Kd in assay [1] is 7.89 µM.
“LDLR^Q722* attached to the surface of small extracellular vesicles (sEV^Ad-LDLR-Q722*) (from UniProt P01130 22-722) (domain or fragment)” displayed an uptake of Dil-LDL by Ldlr–/– primary hepatocytes (confocal fluorescence intensity), sEV^Ad-LDLR-Q722* group against the sEV^Ad-LDLR-WT group in assay [2] of 3.13 fold. Further, in assay [2], the uptake of Dil-LDL by Ldlr–/– primary hepatocytes (confocal fluorescence intensity), sEV^Ad-LDLR-Q722* group against the sEV^Ad-control group came out at 2.68 fold. Moreover, the values for the Kd in assay [3], in assay [4] and in assay [5] were 0.013 µM, 4.98 µM and 0.012 µM, respectively.
In assay [1], “wild-type LDLR (N-terminal residues 1-788) (from UniProt P01130 22-788) (domain or fragment)” yielded a Kd of 7.16 µM. In other words, the single-digit micromolar range.
